Like-named read-outs stand apart in the source and are kept apart here.
B1: recombinant Cas2 of Leptospira interrogans (LinCas2) (enzyme, UniProt Q8F1F4 1-94, looked up)
chain: MKHWRLVSYDIREPKRLRRVAKIMEGFGERIQYSVFRIYSTDKELEKLRWKLAKVTEEEDNIFYLTLCTKCASGAHTQEKKSAWPEAPKTLKIL
B2: native LinCas2 in the lysate of L. interrogans serovar Copenhageni (natural protein, UniProt Q8F1F4 1-94, looked up)
chain: B1 chain

What was measured:
[1] = biological target: the molecule itself; experiment: immunoblot after SDS-PAGE
[2] = biological target: the molecule itself; experiment: immunoblot after SDS-PAGE; remark: listed apart in the source

| Protein | stoichiometry N [1] | stoichiometry N [2] |
| --- | --- | --- |
| B1 | 2 |  |
| B2 |  | 2 |

Reference: paper PMC8610301 (Current Research in Microbial Sciences, 2021)
